Like-named read-outs stand apart in the source and are kept apart here.
What was measured:
KO mice = assay: Liver light and electron microscopy of treated KO mice; type: in vivo, mouse; conditions: 7.5 mg/kg SC 3x/week from 2 days of age, day 17-19
Experimental: The PBS-injected or PEGylated htCBS conjugate, such as 20NHS PEG-htCBS C15S, treated KO mice were sacrificed on day 17-19 and liver samples were processed for histological analysis by optical microscopy. The histological assessment was carried out in a blinded fashion. Livers were removed and were fixed for 24 hours with 4% paraformaldehyde in PBS (pH 7.4). Tissue blocks for histology were trimmed, dehydrated with an ethanol series followed by acetone, acetone-xylene mixture, and xylene, then embedded in paraffin. In parallel, small tissue blocks (around 4 mm×2 mm) fixed with paraformaldehyde were rapidly frozen in petrol ether cooled with dry ice, and stored at −50° C. for detection of apolar lipids. Paraffin sections 4 μm thick were deparaffinized in xylene and after isopropyl alcohol step rehydrated with ethanol (96%, 70%, 60%). Tissue sections were stained with hematoxylin and eosin (H&E) to evaluate histopathological changes. Masson trichrome staining was performed for detection of fibrosis. Steatosis was verified using Oil Red O staining for detection of apolar lipids in fixed-frozen sections that was 10 μm thick and cut with a Leica Cryomicrotome (CM 1850). The sections were viewed and photographed with a Nikon light microscope (E800) equipped with Olympus digital camera (DP70). […]

Hcy, Cys = assay: Plasma metabolites in the I278T facial alopecia study; type: in vivo, I278T mice; conditions: 3 times per week, 24 hours after injection
Experimental: Plasma metabolites homocysteine, cystathionine and cysteine were determined by stable-isotope-dilution liquid chromatography mass spectrometry as previously described in (Allen et al., 1993, Metabolism, 42: 1448-1460). Measurements of total non-protein bound homocysteine and other aminothiols as well as of amino acids in tissue were performed as described in (Maclean et al., 2010b. Mol. Genet. Metab. 101, 153-162). Metabolites were determined by stable-isotope-dilution liquid chromatography mass spectrometry.
The second group (n=3; 2 males, 1 female) was continuously injected with 7.5 mg/kg of 200MA0B PEG-htCBS C15S administered subcutaneously from 3 W of age until 41 weeks of age. Weight was initially monitored weekly. Physical look was recorded before the experiment and was monitored weekly or bi-weekly after the initial 6 W injection regimen. Metabolite levels were checked before the experiment and 24 hours after the last injection of initial 6 W injection regiment and then followed weekly or bi-weekly.
The I278T mice, which were at least 120D (W17) old and had visible, fully developed facial alopecia, were split into 2 groups. […] Metabolite levels were determined prior to the treatment initiation and measured during the study 24 hours after the injection, and weight and physical look were initially monitored weekly, and later bi-weekly.

[1] = cynomolgus monkey, in vivo
Experimental: The pharmacokinetic (PK) parameters were calculated using a non-compartmental curve stripping model which resolves a curve into a series of exponential terms corresponding to the absorption, distribution and elimination phases occurring during the time course of the enzyme in the blood. The curve stripping approach assumes that the disposition phases of the drug follow apparent first-order kinetics, which is evidenced by the linearity in the terminal portion of a semi-log plot. These calculations were made using a modeling program called PK Solutions 2.0 (Summit Solutions, Montrose, CO) using the mean plasma enzyme activity for each route of administration. The bioavailability was calculated by dividing the area under the curve (AUC) for the SC or IP route by the AUC observed after IV administration.
For the single dose PK study, three experimental groups of 4 (n=2M+2F) monkeys each were used to conduct the experiments. The first group received 2 mg/kg 20NHS PEG-htCBS C15S via IV injection. Blood was collected at 0, 0.083, 0.16, 0.25, 0.5, 1, 2, 4, 8, 24, 72, 120, and 192 hours post IV injection. The second and third groups received either 2 mg/kg or 6 mg/kg 20NHS PEG-htCBS C15S via SC injection. Blood was collected at 0, 1, 2, 4, 8, 24, 48, 72, 96, 120, 192, 240, and 336 hours post SC injection.

[2] = Radiometric CBS activity assay of monkey plasma samples; type: in vivo, cynomolgus monkey
Source text: Tables 12-14 below show the comparison of C15S/ME-200GS specific activity determined by LC/MS/MS using D,L-homocysteine M+4 as a substrate and by radiometric assay using L-[…] as a substrate. The enzyme's specific activity is presented in mU/μl. The “n.d.” stands for “not determined”.

20NHS PEG-htCBS C15S: htCBS C15S PEGylated with ME-200GS PEG (20 kDa linear NHS ester-activated PEG)
liver parenchyma, light microscopy (KO mice): regular liver architecture and minimal anizokaryosis | Hcy and Cys change vs 400MA PEG-htCBS C15S (Hcy, Cys): decrease Hcy levels and increase Cys levels more substantially | AUC0-t/dose ([1]; iv, 2 mg/kg): 2971 ± 78 mU-h/μl/(mg/kg) | AUC/dose ([1]; sc): 2744 (mU-h/mL)/(mg/kg) | cmax/dose ([1]; sc): 20 (mU/μL)/(mg/kg) | elimination half-life (T1/2) ([1]; sc): 73 h | AUC0-t/dose ([1]; sc, 2 mg/kg): 2761 ± 160 mU-h/μl/(mg/kg) | cmax/dose ([1]; sc, 2 mg/kg): 20.4 ± 1.0 mU/μl/(mg/kg) | t1/2-A ([1]; sc, 2 mg/kg): 7.9 ± 1.0 h | t1/2-E ([1]; sc, 2 mg/kg): 72.9 ± 1.1 h | AUC0-t/dose ([1]; sc, 6 mg/kg): 2727 ± 119 mU-h/μl/(mg/kg) | cmax/dose ([1]; sc, 6 mg/kg): 19.2 ± 1.3 mU/μl/(mg/kg) | t1/2-A ([1]; sc, 6 mg/kg): 9.7 ± 1.0 h | t1/2-E ([1]; sc, 6 mg/kg): 72.8 ± 1.7 h | specific activity in plasma, Radiometric assay ([2]; single IV 2 mg/kg, 0.083 h): 95.741 mU/μl | specific activity in plasma, Radiometric assay ([2]; single IV 2 mg/kg, 0.167 h): 90.049 mU/μl | specific activity in plasma, Radiometric assay ([2]; single IV 2 mg/kg, 0.25 h): 88.891 mU/μl | specific activity in plasma, Radiometric assay ([2]; single IV 2 mg/kg, 0.5 h): 85.342 mU/μl | specific activity in plasma, Radiometric assay ([2]; single IV 2 mg/kg, 1 h): 80.992 mU/μl | specific activity in plasma, Radiometric assay ([2]; single IV 2 mg/kg, 2 h): 78.984 mU/μl | specific activity in plasma, Radiometric assay ([2]; single IV 2 mg/kg, 4 h): 77.809 mU/μl | specific activity in plasma, Radiometric assay ([2]; single IV 2 mg/kg, 8 h): 70.357 mU/μl | specific activity in plasma, Radiometric assay ([2]; single IV 2 mg/kg, 24 h): 55.865 mU/μl | specific activity in plasma, Radiometric assay ([2]; single IV 2 mg/kg, 72 h): 31.601 mU/μl | specific activity in plasma, Radiometric assay ([2]; single IV 2 mg/kg, 120 h): 18.908 mU/μl | specific activity in plasma, Radiometric assay ([2]; single IV 2 mg/kg, 192 h): 9.182 mU/μl | specific activity in plasma, Radiometric assay ([2]; single SC 2 mg/kg, 1 h): 2.842 mU/μl | specific activity in plasma, Radiometric assay ([2]; single SC 2 mg/kg, 2 h): 5.801 mU/μl | specific activity in plasma, Radiometric assay ([2]; single SC 2 mg/kg, 4 h): 11.207 mU/μl | specific activity in plasma, Radiometric assay ([2]; single SC 2 mg/kg, 8 h): 22.164 mU/μl | specific activity in plasma, Radiometric assay ([2]; single SC 2 mg/kg, 24 h): 40.293 mU/μl | specific activity in plasma, Radiometric assay ([2]; single SC 2 mg/kg, 48 h): 36.658 mU/μl | specific activity in plasma, Radiometric assay ([2]; single SC 2 mg/kg, 72 h): 30.670 mU/μl | specific activity in plasma, Radiometric assay ([2]; single SC 2 mg/kg, 96 h): 23.536 mU/μl | specific activity in plasma, Radiometric assay ([2]; single SC 2 mg/kg, 120 h): 18.608 mU/μl | specific activity in plasma, Radiometric assay ([2]; single SC 2 mg/kg, 192 h): 9.496 mU/μl | specific activity in plasma, Radiometric assay ([2]; single SC 2 mg/kg, 240 h): 5.963 mU/μl | specific activity in plasma, Radiometric assay ([2]; single SC 2 mg/kg, 336 h): 2.441 mU/μl | specific activity in plasma, Radiometric assay ([2]; single SC 6 mg/kg, 1 h): 3.739 mU/μl | specific activity in plasma, Radiometric assay ([2]; single SC 6 mg/kg, 2 h): 9.180 mU/μl | specific activity in plasma, Radiometric assay ([2]; single SC 6 mg/kg, 4 h): 22.263 mU/μl | specific activity in plasma, Radiometric assay ([2]; single SC 6 mg/kg, 8 h): 50.194 mU/μl | specific activity in plasma, Radiometric assay ([2]; single SC 6 mg/kg, 24 h): 111.081 mU/μl | specific activity in plasma, Radiometric assay ([2]; single SC 6 mg/kg, 48 h): 109.292 mU/μl | specific activity in plasma, Radiometric assay ([2]; single SC 6 mg/kg, 72 h): 95.722 mU/μl | specific activity in plasma, Radiometric assay ([2]; single SC 6 mg/kg, 96 h): 73.072 mU/μl | specific activity in plasma, Radiometric assay ([2]; single SC 6 mg/kg, 120 h): 56.427 mU/μl | specific activity in plasma, Radiometric assay ([2]; single SC 6 mg/kg, 192 h): 31.513 mU/μl | specific activity in plasma, Radiometric assay ([2]; single SC 6 mg/kg, 240 h): 19.203 mU/μl | specific activity in plasma, Radiometric assay ([2]; single SC 6 mg/kg, 336 h): 5.807 mU/μl

Source: patent US12194082B2, “Compositions and methods for treatment of homocystinuria” (THE REGENTS OF THE UNIVERSITY OF COLORADO, priority 2016, dated 2025)
